Laboratory results reported in paper doi:10.1101/2022.05.14.22275020, “A homozygous p.(Arg371Ser) mutation in FICD de-regulates AMPylation of the human endoplasmic reticulum chaperone BiP causing infancy-onset diabetes and severe neurodevelopmental delay” (medRxiv, 2022).

Target: the molecule itself
Assay: SEC; analytical SEC, Agilent Bio SEC-3 HPLC column, TNT buffer (25 mM Tris pH 8.0, 150 mM NaCl, 1 mM TCEP), 25 °C; proteins diluted to a range of concentrations (given in Figure 3a) and incubated at least 1 h at room temperature; dimer against monomer

| Protein | stoichiometry N |
| --- | --- |
| wild-type FICD, structured luminal region (residues 104-445) (enzyme, human, UniProt Q9BVA6 104-445, looked up, human FICD (Fic domain-containing protein), structured luminal region, residues 104-445; purification as in Perera et al., 2019 and 2021; also called FICD^WT; WT; source: E. coli T7 Express lysY/Iq (NEB), purified (Ni-NTA, Ulp1 cleavage, anion exchange, gel filtration); not shown: His6, N-terminal, cleaved; SUMO, N-terminal, cleaved) LEARAALNQALEMKRQGKREKAQKLFMHALKMDPDFVDALTEFGIFSEEDKDIIQADYLYTRALTISPYHEKALVNRDRTLPLVEEIDQRYFSIIDSKVKKVMSIPKGNSALRRVMEETYYHHIYHTVAIEGNTLTLSEIRHILETRYAVPGKSLEEQNEVIGMHAAMKYINTTLVSRIGSVTISDVLEIHRRVLGYVDPVEAGRFRTTQVLVGHHIPPHPQDVEKQMQEFVQWLNSEEAMNLHPVEFAALAHYKLVYIHPFIDGNGRTSRLLMNLILMQAGYPPITIRKEQRSDYYHVLEAANEGDVRPFIRFIAKCTETTLDTLLFATTEYSVALPEAQP | 2 |
| FICD^R371S, structured luminal region (residues 104-445) (enzyme, human, UniProt Q9BVA6 104-445, looked up, human FICD, structured luminal region, residues 104-445, with the patient variant p.(Arg371Ser) (NM_007076.2:c.1113G>C); Rare human variant found in patients; also called Arg371Ser mutant FICD; p.(Arg371Ser); source: E. coli T7 Express lysY/Iq (NEB), purified (Ni-NTA, Ulp1 cleavage, anion exchange, gel filtration); not shown: His6, N-terminal, cleaved; SUMO, N-terminal, cleaved) LEARAALNQALEMKRQGKREKAQKLFMHALKMDPDFVDALTEFGIFSEEDKDIIQADYLYTRALTISPYHEKALVNRDRTLPLVEEIDQRYFSIIDSKVKKVMSIPKGNSALRRVMEETYYHHIYHTVAIEGNTLTLSEIRHILETRYAVPGKSLEEQNEVIGMHAAMKYINTTLVSRIGSVTISDVLEIHRRVLGYVDPVEAGRFRTTQVLVGHHIPPHPQDVEKQMQEFVQWLNSEEAMNLHPVEFAALAHYKLVYIHPFIDGNGSTSRLLMNLILMQAGYPPITIRKEQRSDYYHVLEAANEGDVRPFIRFIAKCTETTLDTLLFATTEYSVALPEAQP | 2 |
